Measurements reported in patent US20020086323.

Target: T1, LtrA (Lactococcus lactis) (UniProt P0A3U0)
T1 sequence: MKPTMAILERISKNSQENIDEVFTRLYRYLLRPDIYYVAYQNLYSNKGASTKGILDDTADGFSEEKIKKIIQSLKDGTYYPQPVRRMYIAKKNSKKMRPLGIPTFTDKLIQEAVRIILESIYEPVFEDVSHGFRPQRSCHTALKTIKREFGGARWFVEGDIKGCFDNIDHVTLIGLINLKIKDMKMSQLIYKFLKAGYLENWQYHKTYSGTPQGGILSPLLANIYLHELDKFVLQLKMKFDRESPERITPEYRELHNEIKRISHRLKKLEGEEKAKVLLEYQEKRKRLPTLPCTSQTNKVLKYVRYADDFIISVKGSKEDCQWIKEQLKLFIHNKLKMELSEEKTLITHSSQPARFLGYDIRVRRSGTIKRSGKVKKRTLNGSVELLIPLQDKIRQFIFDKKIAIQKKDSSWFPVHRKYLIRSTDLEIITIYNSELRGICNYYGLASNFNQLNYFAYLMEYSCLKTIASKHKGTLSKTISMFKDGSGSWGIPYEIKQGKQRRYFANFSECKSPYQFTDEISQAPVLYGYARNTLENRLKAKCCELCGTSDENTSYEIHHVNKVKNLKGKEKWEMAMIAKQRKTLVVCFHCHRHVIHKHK
Experiment: cleavage_in_vitro

**Q.** With Ll.ltrB intron RNA ; ltrB +2 to +5 TGCG as the substance, how does the binding signal read?
**A.** < 10 % of WT
